Measurements published in paper PMC3948114.

B1: unnamed (parent)
chain 1: HMGGQDKPFLSAWPSAVVPRGGHVTLRCHYRHRFNNFMLYKEDRIHIPIFHGRIFQESFNMSPVTTAHAGNYTCRGSHPHSPTGWSAPSNPVVIMVTGNHRKPSLLAHPGPLVKSGERVILQCWSDIMFEHFFLHKEGISKDPSRLVGQIHDGVSKANFSIGPMMLALAGTYRCYGSVTHTPYQLSAPSDPLDIVVTGPYEKPSLSAQPGPKVQAGESVTLSCSSRSSYDMYHLSREGGAHERRLPAVRKVNRTFQADFPLGPATHGGTYRCFGSFRHSPYEWSDPSDPLLVSVTGNPSSSWPSPTEPSSKSGNPRHLHILIGTSVVIILFILLLFFLLHLWCSNKKNAAVMDQEPAGNRTANSEDSDEQDPEEVTYAQLDHCVFTQRKITRPSQRPKTPPTDTILYTELPNAKPRSKVVSCP
chain 2: not shown
chain 3: not shown
chain 4: TSTLQEQIDW

Variants of: B1
Test: tetramer staining of transfected HEK293 cells
Settings: with partner chain of the complex shown; 0.2 μg tetramer; read off a plot

| Variant | response (% of *001 TW10) |
| --- | --- |
| chain 1 L166V | 46 |
| chain 1 L166A | 90 |
| chain 1 E282Q | 130 |
| chain 1 E282A | 26 |
| chain 1 A167G | 10 |
